One block for each molecule: values may come before it.
What was measured:
[1] = target: T1, Hs-Axl-Fc (immobilized Axl-Fc) (Homo sapiens, UniProt P30530); experiment: Biacore binding competition assays, two injections (Example 22)
T1 construct: Fc
Source text: Sensor chip with immobilised Axl: Hs-Axl-Fc (638.2 RU), Mm-Axl-Fc (334.5 RU), Rhe-Axl-Fc (350.2 RU)
In this experiment, a first antibody was allowed to bind to saturation. A second antibody was then applied and its ability to bind was monitored.
If the second antibody recognizes the same (or overlapping) epitope as the first antibody then binding will be blocked. If the second antibody recognizes a different epitope then binding will be detected at the same level as if no first antibody was present.
The ability of Gas6 to block antibody binding was also tested, using Gas6 at 10 μg/mL in HBS-EP.
All tests were performed in parallel on Hs-Axl-Fc, Mm-Axl-Fc and Rhe-Axl-Fc surfaces.
See FIG. 1 for a list of the pairs that were tested (in this list Contr-1 is incorrectly labeled YW367 instead of YW327.6S2var). All antibodies were at 25 μg/mL in HBS-EP.
• 2. Perform Biacore experiments at 25° C. • 3. In the instrument control software choose Direct Binding, and select settings for two injections as shown below. • 4. […] Store the template & the result file, start the analysis.

[2] = target: T2, Tyro3 (rhTyro3/Dtk-Fc chimera) (Homo sapiens, UniProt Q06418); experiment: Biacore binding analysis on immobilised human Tyro3; details: 10 μg/mL in HBS-EP, 25° C.
T2 construct: Soluble recombinant antigens corresponding to the extracellular domains of members of the human TAM receptor family; Fc; purchased R&D Systems 859-DK
T2 sequence (Q06418 41-429 limits assumed): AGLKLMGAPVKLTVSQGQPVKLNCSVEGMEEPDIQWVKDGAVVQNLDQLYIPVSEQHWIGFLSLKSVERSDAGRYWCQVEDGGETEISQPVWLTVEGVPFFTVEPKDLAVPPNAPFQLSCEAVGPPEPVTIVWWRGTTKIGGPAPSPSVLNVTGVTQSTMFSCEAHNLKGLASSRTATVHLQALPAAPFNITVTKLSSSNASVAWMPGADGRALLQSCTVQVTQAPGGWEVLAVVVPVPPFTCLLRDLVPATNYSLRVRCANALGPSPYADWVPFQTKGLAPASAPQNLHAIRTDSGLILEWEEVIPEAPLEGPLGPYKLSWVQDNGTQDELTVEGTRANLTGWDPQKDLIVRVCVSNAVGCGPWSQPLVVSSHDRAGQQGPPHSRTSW
Experimental: (§1) All binding experiments were performed using Biacore 3000 instrument (GE Healthcare) at 25° C. Soluble recombinant antigens corresponding to the extracellular domains of members of the human TAM receptor family, Axl (rhAxl-Fc chimera; R&D Systems, Cat. no. 154-AL), Mer (rhMer-Fc chimera; R&D Systems, Cat. no. 891-MR) and Tyro3 (rhTyro3/Dtk-Fc chimera; R&D Systems, Cat. no. 859-DK) were immobilized on the surface of CM5 sensor chip using amine coupling at the surface density of 393.0, 303.6 and 364.0 resonance units (RU), respectively. The Biacore run was performed in an automatic mode using Binding analysis wizard. Samples containing MAb 10G5 at concentration 10 μg/mL in HBS-EP buffer (GE Healthcare) were injected over the surfaces with immobilized antigens at flow rate of 30 μL/min for 3 min (association) followed by 5 min dissociation.
The binding experiments were performed using Biacore 3000 instrument (GE Healthcare) at 25° C. The soluble recombinant antigens corresponding to human Axl (rhAxl-Fc chimera; R&D Systems, Cat. no. 154-AL), mouse Axl (rmAxl-Fc chimera; R&D Systems, R&D Systems; Cat. no. 854-AX) and human Tyro3 (rhTyro3/Dtk-Fc chimera; R&D Systems, Cat. no. 859-DK) were immobilized on the surface of CM5 sensor chip using amine coupling at the surface density of 1,308.0, 2,115.9 and 1,429.0 RU, respectively. The Biacore runs were performed in an automatic mode using Binding analysis wizard.
The sample containing MAb 10G5 or recombinant mouse (rm) Axl-ligand Gas6 (R&D Systems, Cat. no. 986-GS/CF) at concentration 10 μg/mL in HBS-EP buffer (GE Healthcare) was injected over the surfaces with immobilized antigens at flow rate of 30 μL/min for 3 min (association) followed by 5 min dissociation.

Mer (rhMer-Fc chimera) = target: T3, Mer (rhMer-Fc chimera) (Homo sapiens, UniProt Q12866); experiment: Biacore binding analysis on immobilised human Mer; details: 10 μg/mL in HBS-EP, 25° C.
T3 construct: Soluble recombinant antigens corresponding to the extracellular domains of members of the human TAM receptor family; Fc; purchased R&D Systems 891-MR
T3 sequence (Q12866 21-505 limits assumed): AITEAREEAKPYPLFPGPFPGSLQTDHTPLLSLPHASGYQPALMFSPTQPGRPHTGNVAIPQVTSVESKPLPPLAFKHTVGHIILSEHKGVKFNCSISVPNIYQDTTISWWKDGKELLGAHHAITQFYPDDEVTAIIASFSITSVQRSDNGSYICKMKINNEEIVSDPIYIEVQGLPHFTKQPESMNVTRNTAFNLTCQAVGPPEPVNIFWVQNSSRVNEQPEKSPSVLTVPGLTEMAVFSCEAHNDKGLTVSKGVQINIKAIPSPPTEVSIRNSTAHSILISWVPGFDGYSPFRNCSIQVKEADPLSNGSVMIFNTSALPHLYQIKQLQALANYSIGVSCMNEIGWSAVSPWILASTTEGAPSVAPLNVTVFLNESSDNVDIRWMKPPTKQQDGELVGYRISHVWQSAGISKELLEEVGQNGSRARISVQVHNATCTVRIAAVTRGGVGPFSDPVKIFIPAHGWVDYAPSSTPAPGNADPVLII
Experimental: as §1

Mv4-11 tumours = experiment: Mv4-11 human AML xenograft in nude mice; type: in vivo, mouse; details: 30 mg/kg i.p. twice weekly, after three weeks of treatment, versus vehicle
Experimental: To evaluate the anti-tumour activity of anti-Axl chimeric antibodies in a model of haematological cancer, we used a mouse xenograft model of human acute myeloid leukaemia (AML). The human AML Mv4-11 cells (ATCC #CRL-9591) cells were propagated in suspension in IMDM medium supplemented with 10% FBS, 2 mM L-Glutamine, 100 U/ml penicillin and 100 μg/ml streptomycin. Nude mice were implanted s.c. into the flank with 5×10^6 Mv4-11 cells resuspended in the mixture of serum-free IMDM medium and Matrigel (1:1). When the tumour size reached 200 mm^3 (Day 0 in FIG. 15), the animals were randomized and treated with either vehicle (sterile PBS) or anti-Axl chimeric antibody 10G5 at 30 mg/kg, by i.p. injections twice weekly for 4 weeks.

- Competition with 1H12 for binding to Axl [1]: No competition
- Binding to recombinant human Tyro3 [2]: no significant binding
- Binding to recombinant human Mer (Mer (rhMer-Fc chimera)): no significant binding
B1: murine 10G5: mouse monoclonal anti-human Axl antibody from hybridoma WR-10G5-E5; VH SEQ ID NO: 28, VL SEQ ID NO: 29 (antibody, listed as Mus musculus, V domains shown)
VH: QVQLQQSGAELVRPGASVKLSCKASGYSFTDFYINWVRQRPGQGLEWIARIFPGGDNTYYNEKFKGKATLTAEESSSTAYIQLSSLTSEDSAVYFCARRGLYYAMDYWGQGISVTVSS
VL: DVLMTQTPLSLPVSLGDQASISCRSSQSLVHSNGIPYLHWYLQKPGQSPKLLIYRVSNRFSGVPDRFSGSGSGTDFTLKISRVEAEDLGVYFCSQGTHVPPTFGGGTKLEIK
modifications: (1)..(118) Mus musculus 10G5 VH domain; (1)..(112) Mus musculus 10G5 VL domain

B2: c10G5: chimeric (mouse variable/human constant) IgG1 antibody with the 10G5 VH and VL (antibody, V domains shown)
VH: B1 VH
VL: B1 VL
- Inhibition of Mv4-11 tumour growth (Mv4-11 tumours): around 75%
